Assays:
HeLa Kyoto [1] = assay: solubility in G1/S (NP-40 vs SDS abundance) (log2 ratio); higher = more soluble; conditions: cell cycle stage: G1/S
HeLa Kyoto [2] = assay: thermal stability score vs G1/S (z-score of summed log2 fold changes over temperatures); higher = more thermally stable than in G1/S
HeLa Kyoto [3] = assay: solubility change mitosis vs G1/S (difference of NP-40 vs SDS log2 ratios) (log2 ratio difference); higher = more soluble in mitosis
HeLa Kyoto [4] = assay: melting temperature (median over replicates), in situ; higher = more thermally stable
[5] = cell cycle stage: early G1 (4.5 h after nocodazole release)
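For melting temperature (median over replicates), in situ in this document: HeLa Kyoto cells synchronized by double thymidine or nocodazole block, proteins quantified by TMT10plex mass spectrometry, three independent biological replicates.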
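For solubility change mitosis vs G1/S (difference of NP-40 vs SDS log2 ratios) in this document: synchronized HeLa Kyoto cells (double thymidine block for G1/S, nocodazole release for mitosis), protein amounts in NP-40 versus SDS lysates quantified by mass spectrometry, three biological replicates.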
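For solubility in G1/S (NP-40 vs SDS abundance) in this document: HeLa Kyoto cells arrested at G1/S by double thymidine block, proteins quantified by TMT10plex mass spectrometry in mild NP-40 versus SDS extracts, three biological replicates.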
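For thermal stability score vs G1/S (z-score of summed log2 fold changes over temperatures) in this document: synchronized HeLa Kyoto cells, proteins quantified by TMT10plex mass spectrometry, three biological replicates, mitosis taken 0.5 h after nocodazole release, G1/S directly after double thymidine block.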

Sequence of MSI2 (chain, as listed by the source): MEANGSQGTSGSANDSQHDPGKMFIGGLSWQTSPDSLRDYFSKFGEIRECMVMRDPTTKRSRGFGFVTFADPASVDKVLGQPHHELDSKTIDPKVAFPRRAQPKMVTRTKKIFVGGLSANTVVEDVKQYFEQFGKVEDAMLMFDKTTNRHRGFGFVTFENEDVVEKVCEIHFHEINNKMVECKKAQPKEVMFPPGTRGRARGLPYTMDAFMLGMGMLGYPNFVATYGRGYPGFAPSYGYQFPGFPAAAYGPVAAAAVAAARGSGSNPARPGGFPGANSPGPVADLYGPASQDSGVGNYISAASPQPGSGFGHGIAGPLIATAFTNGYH

| Substance | solubility in G1/S (log2) (HeLa Kyoto [1]) | thermal stability score (HeLa Kyoto [2]; [5]) | thermal stability score (HeLa Kyoto [2]; cell cycle stage: mitosis) | solubility change mitosis (log2) (HeLa Kyoto [3]) | melting temperature (HeLa Kyoto [4]; cell cycle stage: G1/S) [°C] | melting temperature (HeLa Kyoto [4]; cell cycle stage: mitosis) [°C] |
| --- | --- | --- | --- | --- | --- | --- |
| MSHVAVENALGLDQQFAGLDLNSSDNQSGGSTASKGRYIPPHLRNREATKGFYDKDSSGWSSSKDKDAYSSFGSRSDSRGKSSFFSDRGSGSRGRFDDRGRSDYDGIGSRGDRSGFGKFERGGNSRWCDKSDEDDWSKPLPPSERLEQELFSGGNTGINFEKYDDIPVEATGNNCPPHIESFSDVEMGEIIMGNIELTRYTRPTPVQKHAIPIIKEKRDLMACAQTGSGKTAAFLLPILSQIYSDGPGEALRAMKENGRYGRRKQYPISLVLAPTRELAVQIYEEARKFSYRSRVRPCVVYGGADIGQQIRDLERGCHLLVATPGRLVDMMERGKIGLDFCKYLVLDEADRMLDMGFEPQIRRIVEQDTMPPKGVRHTMMFSATFPKEIQMLARDFLDEYIFLAVGRVGSTSENITQKVVWVEESDKRSFLLDLLNATGKDSLTLVFVETKKGADSLEDFLYHEGYACTSIHGDRSQRDREEALHQFRSGKSPILVATAVAARGLDISNVKHVINFDLPSDIEEYVHRIGRTGRVGNLGLATSFFNERNINITKDLLDLLVEAKQEVPSWLENMAYEHHYKGSSRGRSKSSRFSGGFGARDYRQSSGASSSSFSSSRASSSRSGGGGHGSSRGFGGGGYGGFYNSDGYGGNYNSQGVDWWGN [DDX3X] | -0.457 | -0.877 | 2.82 | 0.197 | 47.4 | 47.4 |
| MSI2 | 0.473 | -0.0604 | -1.64 | 0.0111 | 51 | 50.8 |
| MSIFTPTNQIRLTNVAVVRMKRAGKRFEIACYKNKVVGWRSGVEKDLDEVLQTHSVFVNVSKGQVAKKEDLISAFGTDDQTEICKQILTKGEVQVSDKERHTQLEQMFRDIATIVADKCVNPETKRPYTVILIERAMKDIHYSVKTNKSTKQQALEVIKQLKEKMKIERAHMRLRFILPVNEGKKLKEKLKPLIKVIESEDYGQQLEIVCLIDPGCFREIDELIKKETKGKGSLEVLNLKDVEEGDEKFE [SBDS] | -0.0131 | 1.75 | 2.97 | -0.0695 | 50.4 | 50.2 |
| MSKPPPKPVKPGQVKVFRALYTFEPRTPDELYFEEGDIIYITDMSDTNWWKGTSKGRTGLIPSNYVAEQAESIDNPLHEAAKRGNLSWLRECLDNRVGVNGLDKAGSTALYWACHGGHKDIVEMLFTQPNIELNQQNKLGDTALHAAAWKGYADIVQLLLAKGARTDLRNIEKKLAFDMATNAACASLLKKKQGTDAVRTLSNAEDYLDDEDSD [OSTF1] | 0.545 | -0.239 | 0.339 | -0.158 | 49.3 | 50.7 |
| MSKSFQQSSLSRDSQGHGRDLSAAGIGLLAAATQSLSMPASLGRMNQGTARLASLMNLGMSSSLNQQGAHSALSSASTSSHNLQSIFNIGSRGPLPLSSQHRGDADQASNILASFGLSARDLDELSRYPEDKITPENLPQILLQLKRRRTEEGPTLSYGRDGRSATREPPYRVPRDDWEEKRHFRRDSFDDRGPSLNPVLDYDHGSRSQESGYYDRMDYEDDRLRDGERCRDDSFFGETSHNYHKFDSEYERMGRGPGPLQERSLFEKKRGAPPSSNIEDFHGLLPKGYPHLCSICDLPVHSNKEWSQHINGASHSRRCQLLLEIYPEWNPDNDTGHTMGDPFMLQQSTNPAPGILGPPPPSFHLGGPAVGPRGNLGAGNGNLQGPRHMQKGRVETSRVVHIMDFQRGKNLRYQLLQLVEPFGVISNHLILNKINEAFIEMATTEDAQAAVDYYTTTPALVFGKPVRVHLSQKYKRIKKPEGKPDQKFDQKQELGRVIHLSNLPHSGYSDSAVLKLAEPYGKIKNYILMRMKSQAFIEMETREDAMAMVDHCLKKALWFQGRCVKVDLSEKYKKLVLRIPNRGIDLLKKDKSRKRSYSPDGKESPSDKKSKTDGSQKTESSTEGKEQEEKSGEDGEKDTKDDQTEQEPNMLLESEDELLVDEEEAAALLESGSSVGDETDLANLGDVASDGKKEPSDKAVKKDGSASAAAKKKLKKVDKIEELDQENEAALENGIKNEENTEPGAESSENADDPNKDTSENADGQSDENKDDYTIPDEYRIGPYQPNVPVGIDYVIPKTGFYCKLCSLFYTNEEVAKNTHCSSLPHYQKLKKFLNKLAEERRQKKET [MATR3] | -0.173 | 9.67 | 19.4 | 0.223 | 45.7 | 48.2 |
| MSKSLKKLVEESREKNQPEVDMSDRGISNMLDVNGLFTLSHITQLVLSHNKLTMVPPNIAELKNLEVLNFFNNQIEELPTQISSLQKLKHLNLGMNRLNTLPRGFGSLPALEVLDLTYNNLSENSLPGNFFYLTTLRALYLSDNDFEILPPDIGKLTKLQILSLRDNDLISLPKEIGELTQLKELHIQGNRLTVLPPELGNLDLTGQKQVFKAENNPWVTPIADQFQLGVSHVFEYIRSETYKYLYGRHMQANPEPPKKNNDKSKKISRKPLAAKNR [RSU1] | 0.389 | -0.646 | -1.96 | 0.203 | 50.3 | 52.9 |
